Data published in the supplement of paper PMC9170038.

Test system: MS2 coat protein
Test: apparent KD of MS2 coat protein; designed switch direction (-1 OFF switch, 1 ON switch): -1; higher = weaker reporter binding
Procedure, shortened: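 Stalled E. coli RNA polymerase transcribed designed RNA switches on Illumina chips, which were then titrated with SNAP-549-labelled MS2 coat protein, doubling from 0.7 or 1.5 nM to 3 µM. Steps lasted from 0.8–1.5 h at the lowest concentration to 10–20 min at the highest. The apparent KD is each design's median over clusters of curve-fitted normalised fluorescence.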

[1] = Eterna round: R95, input ligand: FMN 200 uM
[2] = Eterna round: R95, input ligand: microRNA oligo, concentration not stated
[3] = Eterna round: R95, input ligand: none
[4] = input ligand: microRNA oligo, concentration not stated

## GUUACUAUUGUGAGGAUAUACUUAUUAAUAAAUAGGUAGAAGGCACAUGAGGAUCACCCAUGUUUUAACUUUUC [lam1] (Eterna round: R97, puzzle: Brourd's mod of Exclusion 4)
Input ligand: FMN 200 uM
  apparent KD of MS2 coat protein: 0.0968 µM
Input ligand: none
  apparent KD of MS2 coat protein: 0.0249 µM

## CCCAGAUAAGGAUAUUGAAGGUUCGACAUGAGGAUCACCCAUGUUAUGUUGGAAAAGGGACAAGAAGGUAUGAAAA [salish99_ex5_r4_216] (Eterna round: R97, puzzle: Exclusion 5)
Input ligand: FMN 200 uM
  apparent KD of MS2 coat protein: 0.0312 µM
Input ligand: none
  apparent KD of MS2 coat protein: 0.0331 µM

## CAGAAUUGAGGAUAUGAUCAAUUUAACAUGAGGAUCACCCAUGUAUGGGAAUGAUUCUGAUCAGAAGGCGAUUCUA [Exclusion 5: 1:b] (puzzle: Exclusion 5)
[1]
  apparent KD of MS2 coat protein: 0.289 µM
[2]
  apparent KD of MS2 coat protein: 0.408 µM
[3]
  apparent KD of MS2 coat protein: 0.079 µM

## ACACACAGAGGAUAUCUUCCGCAUGACAUGAGGAUCACCCAUGUGUGCAUGCCCAAAGGUAGAGAAGGCUGUGUGU [eternacac ex5r4 #4] (Eterna round: R97, puzzle: Exclusion 5)
Input ligand: FMN 200 uM
  apparent KD of MS2 coat protein: 0.0249 µM
Input ligand: none
  apparent KD of MS2 coat protein: 0.0222 µM

## CUUUUGUGAGGAUAUUAGUAGUAAAUAAAUAAAAUUACUACUGAGAAGGCACAUGAGGAUCACCCAUGUUUCUC [salish99_ex4_r3_065] (puzzle: Exclusion 4)
[2]
  apparent KD of MS2 coat protein: 0.0319 µM

## GUGUUUGAUGAGGAUAUCGAUGUGGGUAUAUAGCGAGAAGGCAUUACAUGAGGAUCACCCAUGUAGUGUGGGUU [JR_Ex6_Sub024] (Eterna round: R97, puzzle: Exclusion 6)
Input ligand: FMN 200 uM
  apparent KD of MS2 coat protein: 0.0333 µM
Input ligand: none
  apparent KD of MS2 coat protein: 0.0356 µM

## ACGCGUGAAGGAUAUACGCGGGCCCAAGCGGAUCACACCGCACAUGAGGAUCACCCAUGUAGAAGGUCACAAAA [r4x2dt1] (Eterna round: R97, puzzle: Exclusion 2)
Input ligand: FMN 200 uM
  apparent KD of MS2 coat protein: 0.169 µM
Input ligand: none
  apparent KD of MS2 coat protein: 0.0235 µM

## AAUAAAACAUAGGAUAUCGAAUUUAUCAUUUAACGAGAAGGAUGAACAUGAGGAUCACCCAUGUGGUAUCAUGG [Mat - Exclusion 6 - JL Mod - D7] (puzzle: Exclusion 6)
[1]
  apparent KD of MS2 coat protein: 0.168 µM
[2]
  apparent KD of MS2 coat protein: 0.244 µM
[3]
  apparent KD of MS2 coat protein: 0.216 µM

## CAUUAUUAUCGAGGAUAUCCUAUUGAAAUUCUGGGAGAAGGCGGACUCAACAUGAGGAUCACCCAUGUGGGACGGAUGCUGGGA [salish99_exng1_r04_604] (Eterna round: R96, puzzle: Exclusion NG 1)
Input ligand: FMN 200 uM
  apparent KD of MS2 coat protein: 0.018 µM
[4]
  apparent KD of MS2 coat protein: 0.0209 µM
Input ligand: none
  apparent KD of MS2 coat protein: 0.021 µM

## UUGUGGGUACGAAGGUGUAGUUUGAGCGUACGUUCUGUAACAUGAGGAUCACCCAUGUCGCUUUUUGCUCGUCUUAU [JR_SV3TOV2_Sub036] (puzzle: Sensor v3, turn-off variant 2)
[1]
  apparent KD of MS2 coat protein: 0.0247 µM
[2]
  apparent KD of MS2 coat protein: 0.0682 µM
[3]
  apparent KD of MS2 coat protein: 0.0248 µM

## UAAAAGUUAGGAUAUACAUGAGGAUCACCCAUGUCGCGGAACCGCGGCGAUUACUCCUGUAGAAGGAACAUCGU [Ribeat] (puzzle: Exclusion 3)
[2]
  apparent KD of MS2 coat protein: 0.125 µM

## ACUCCUGAUGUUAGGAUAUCAGGCGCGACAGCGGAUGAGAAGGAACAUGAGGAUCACCCAUGUGGGCUUAUCAA [Reedonso] (Eterna round: R97, puzzle: Brourd's mod of Exclusion 4)
Input ligand: FMN 200 uM
  apparent KD of MS2 coat protein: 0.325 µM
Input ligand: none
  apparent KD of MS2 coat protein: 0.0816 µM

## UAAAUGUCAGGAUAUUGUUAAUUUAGUUGUUUGUAUUAGUUCGAGAAGGGACAUGAGGAUCACCCAUGUUAAAA [Ex4 #52] (Eterna round: R97, puzzle: Exclusion 4)
Input ligand: FMN 200 uM
  apparent KD of MS2 coat protein: 0.0376 µM
Input ligand: none
  apparent KD of MS2 coat protein: 0.031 µM

## AAAUCGCAAGGAUAUCGUCAGUCUGACAUGAGGAUCACCCAUGUUAUCUUGGUAUCAGAGCGAGAAGGUGCAAAGU [Erbied] (Eterna round: R96, puzzle: Exclusion 5)
Input ligand: FMN 200 uM
  apparent KD of MS2 coat protein: 0.0108 µM
[4]
  apparent KD of MS2 coat protein: 0.00945 µM
Input ligand: none
  apparent KD of MS2 coat protein: 0.0146 µM

## UUUGAAUAAGUGAGGAUAUACUGUUAGUAUUGAUUGUAGAAGGUACAUGAGGAUCACCCAUGUUUAGUAUUUAU [JR_BME4_Sub038] (puzzle: Brourd's mod of Exclusion 4)
[2]
  apparent KD of MS2 coat protein: 0.0156 µM

## UAGGGCUGCGGAGGAUAUCCAUAGUGGGCCGGUCGAAGCAUGAGACAUGAGGAUCACCCAUGUCUGGAGAAGGCUGAGCCCUCA [Lequcele] (Eterna round: R96, puzzle: Exclusion NG 2)
Input ligand: FMN 200 uM
  apparent KD of MS2 coat protein: 0.0208 µM
[4]
  apparent KD of MS2 coat protein: 0.0121 µM
Input ligand: none
  apparent KD of MS2 coat protein: 0.0141 µM

## UAGCCCAACUCAUCCUCAUUGAGACAUGAGGAUCACCCAUGUGAGGAUAUUGCGUCGAGAGGACACGAGAAGGCACAAUAGUUU [Eternabot solution 17] (Eterna round: R96, puzzle: Exclusion NG 3)
Input ligand: FMN 200 uM
  apparent KD of MS2 coat protein: 0.216 µM
[4]
  apparent KD of MS2 coat protein: 0.0881 µM
Input ligand: none
  apparent KD of MS2 coat protein: 0.109 µM

## AUAAUGUAAGGAUAUCAGUCGACUAGCCUCGGCUAGUCGACUGAGAAGGUACAUGAGGAUCACCCAUGUAGAUC [E4/19-A2] (Eterna round: R97, puzzle: Exclusion 4)
Input ligand: FMN 200 uM
  apparent KD of MS2 coat protein: 0.352 µM
Input ligand: none
  apparent KD of MS2 coat protein: 0.0478 µM

## AAAGAUCAGGUGAGGAUAUACAUAUCGAAAGAUAUGUAGAAGGCACAUGAGGAUCACCCAUGUAUAAGGUUACC [Alacar 2] (Eterna round: R97, puzzle: Brourd's mod of Exclusion 4)
Input ligand: FMN 200 uM
  apparent KD of MS2 coat protein: 0.313 µM
Input ligand: none
  apparent KD of MS2 coat protein: 0.0521 µM

## UUUAAUUUUUUUUUUUUACAAGCUUUUUGCUCGUCUUAUACAUGAGGAUCACCCAUGUAGGUGAAAGAUAAAUUAUC [JMF 4] (puzzle: Sensor v3, turn-off variant 2)
[1]
  apparent KD of MS2 coat protein: 0.0315 µM
[2]
  apparent KD of MS2 coat protein: 0.0775 µM
[3]
  apparent KD of MS2 coat protein: 0.0335 µM

## UAAUUGUGAGGAUAUUCGUUUUUCACGGAGACGUGAAGAACGGAGAAGGCACAUGAGGAUCACCCAUGUUCCUU [Mat - Exclusion 4 - JL Mod - D15] (Eterna round: R97, puzzle: Exclusion 4)
Input ligand: FMN 200 uM
  apparent KD of MS2 coat protein: 0.0893 µM
Input ligand: none
  apparent KD of MS2 coat protein: 0.0195 µM

## GCAAGCUUUUGCUCGUCUUACAUGAGGAUCACCCAUGUCGGGCCCGGCCGUCGCGGCCGGGCCCGCCGGGCGCCGGG [-41.9, -69.5 kcal, A 10%] (Eterna round: R97, puzzle: Sensor, turn-off variant 1)
Input ligand: FMN 200 uM
  apparent KD of MS2 coat protein: 0.0535 µM
Input ligand: none
  apparent KD of MS2 coat protein: 0.0641 µM

## AGGCGGACAUCUAAUACUCACAUGAGGAUCACCCAUGUUUGACCAAAUAUACAGGCCGGUUUGCUUAGUCUUACUUG [Eternabot (L2) Solution 43] (Eterna round: R97, puzzle: Sensor, turn-off variant 1)
Input ligand: FMN 200 uM
  apparent KD of MS2 coat protein: 0.0408 µM
Input ligand: none
  apparent KD of MS2 coat protein: 0.0492 µM

## AACAUACAUGAGGAUCACCCAUGUGAGGAUAUGAGAGUCAACUCGAGAGAGUUGAUUCUCAGAAGGCACAUAAA [JR_Ex1_Sub065] (Eterna round: R97, puzzle: Exclusion 1)
Input ligand: FMN 200 uM
  apparent KD of MS2 coat protein: 0.226 µM
Input ligand: none
  apparent KD of MS2 coat protein: 0.0675 µM

## AGACCACAUGAGGAUCACCCAUGUCAGGAUAUCGACUGAACAGCUUCGGCUGUUCAGUCGAGAAGGGACAAUUA [Brourdxlusion 8 - Jieux - Exclusion 1] (Eterna round: R97, puzzle: Exclusion 1)
Input ligand: FMN 200 uM
  apparent KD of MS2 coat protein: 0.06 µM
Input ligand: none
  apparent KD of MS2 coat protein: 0.0527 µM

## UUGUAGCAGGCCUUCGAGUACAUGAGGAUCACCCAUGUCGUGCCUGAAAUCUCAGAGACAGGUGGCUCGUCUUAGGC [Eternabot (L1) Solution 32] (Eterna round: R97, puzzle: Sensor, turn-off variant 1)
Input ligand: FMN 200 uM
  apparent KD of MS2 coat protein: 0.0212 µM
Input ligand: none
  apparent KD of MS2 coat protein: 0.0169 µM

## GAAAGGGCAGGAUAUGCAGAGAGAGAGAGAGAGAGAAAAAAACAUGAGGAUCACCCAUGUAGAAGGGCCGAAAG [salish99-ex2-06] (Eterna round: R96, puzzle: Exclusion 2)
Input ligand: FMN 200 uM
  apparent KD of MS2 coat protein: 0.031 µM
[4]
  apparent KD of MS2 coat protein: 0.0278 µM
Input ligand: none
  apparent KD of MS2 coat protein: 0.0342 µM

## AAGUAUAGAGGAUAUAGUGAGUACUACAUGAGGAUCACCCAUGUUCUUCAAAGCGUACUUCUAGAAGGCUGAUAAA [EX-5 Malc#16] (puzzle: Exclusion 5)
[1]
  apparent KD of MS2 coat protein: 0.381 µM
[2]
  apparent KD of MS2 coat protein: 0.251 µM
[3]
  apparent KD of MS2 coat protein: 0.208 µM

## ACGUGAUAUCUGUCGGUGGACAUGAGGAUCACCCAUGUGAGCUUUUUGCUCGUCUUAUAACCCGAUGACAGACCUUC [Anorin] (puzzle: Sensor v3, turn-off variant 1)
[1]
  apparent KD of MS2 coat protein: 0.0142 µM
[2]
  apparent KD of MS2 coat protein: 0.266 µM
[3]
  apparent KD of MS2 coat protein: 0.013 µM

## GGGAUGUCAGGAUAUCCGAAUAAUAACAACAAUAACAGAAAGGAGAAGGGACAUGAGGAUCACCCAUGUAAAAG [Bemadiin] (puzzle: Exclusion 4)
[1]
  apparent KD of MS2 coat protein: 0.0399 µM
[2]
  apparent KD of MS2 coat protein: 0.0375 µM
[3]
  apparent KD of MS2 coat protein: 0.04 µM

## UUCCACGAUGUCAGGAUAUGUAGGGCCGCUGCUAGGCAGAAGGGACAUGAGGAUCACCCAUGUACUGACUACUG [Eternabot (L2) Solution 84] (Eterna round: R97, puzzle: Brourd's mod of Exclusion 4)
Input ligand: FMN 200 uM
  apparent KD of MS2 coat protein: 0.0782 µM
Input ligand: none
  apparent KD of MS2 coat protein: 0.0696 µM

## CUUGAAUAAGUGAGGAUAUACUGUUAGUAAUGAUUGUAGAAGGUACAUGAGGAUCACCCAUGUUUAUUCUUUAU [JR_BME4_Sub040] (puzzle: Brourd's mod of Exclusion 4)
[2]
  apparent KD of MS2 coat protein: 0.0145 µM

## AAAAUAACAUGAGGAUCACCCAUGUAAUUGGGUAGUCCGAGCGAGGAUAUCCUCGCCGGAAAAGAGGAGAAGGCGCAAUGAAAG [Usxeeran] (Eterna round: R96, puzzle: Exclusion NG 3)
Input ligand: FMN 200 uM
  apparent KD of MS2 coat protein: 0.882 µM
[4]
  apparent KD of MS2 coat protein: 0.424 µM
Input ligand: none
  apparent KD of MS2 coat protein: 0.509 µM

## AUGAGACAUGAGGAUCACCCAUGUGAGGAUAUGUAUGGAUGGUAGAAAGAAUGAAAGAACAGAAGGCACGUAGA [JR_Exclu1_Sub061] (puzzle: Exclusion 1)
[1]
  apparent KD of MS2 coat protein: 0.143 µM
[2]
  apparent KD of MS2 coat protein: 0.15 µM
[3]
  apparent KD of MS2 coat protein: 0.21 µM
